Reference: the Human Domainome abundance scans (Beltran et al. 2025)
± gives the uncertainty stated by the source.

B1: Probable E3 ubiquitin-protein ligase MID2, residues 191 to 235; numbered along this chain, Q9UJV3 (parent)
chain: RGITCLDHENEKVNMYCVSDDQLICALCKLVGRHRDHQVASLNDR

Variants of: B1
Test: abundance fitness (aPCA) (normalised: wild type 0, dead -1); higher = more abundant; growth selection in yeast, the domain comes from the species named
Conditions: Homo sapiens

Variant	abundance fitness
RGITCLDHENEKVNMYCVSDDQLICALCKLVVRHRDHQVASLNDR [G32V]	-0.474 ± 0.067
RGITCLDHENEKVNMYCVSDDQLICALCKLVKRHRDHQVASLNDR [G32K]	-0.316 ± 0.088
RGITCLDHENEKVNMYCVSDDQLICALCKLVHRHRDHQVASLNDR [G32H]	-0.185 ± 0.08
RGITCLDHENEKVNMYCVSDDQLICALCKLVWRHRDHQVASLNDR [G32W]	-0.954 ± 0.16
RGITCLDHENEKVNMYCVSDDQLICALCKLVRRHRDHQVASLNDR [G32R]	-0.537 ± 0.092
RGITCLDHENEKVNMYCVSDDQLICALCKLVDRHRDHQVASLNDR [G32D]	-0.337 ± 0.23
RGITCLDHENEKVNMYCVSDDQLICALCKLVIRHRDHQVASLNDR [G32I]	-0.459 ± 0.23
RGITCLDHENEKVNMYCVSDDQLICALCKLVARHRDHQVASLNDR [G32A]	-0.518 ± 0.07
RGITCLDHENEKVNMYCVSDDQLICALCKLVSRHRDHQVASLNDR [G32S]	-0.408 ± 0.07
RGITCLDHENEKVNMYCVSDDQLICALCKLVLRHRDHQVASLNDR [G32L]	-0.684 ± 0.078
RGITCLDHENEKVNMYCVSDDQLICALCKLVQRHRDHQVASLNDR [G32Q]	-0.472 ± 0.081
RGITCLDHENEKVNMYCVSDDQLICALCKLVTRHRDHQVASLNDR [G32T]	-0.339 ± 0.091
RGITCLDHENEKVNMYCVSDDQLICALCKLVCRHRDHQVASLNDR [G32C]	-0.589 ± 0.12
RGITCLDHENEKVNMYCVSDDQLICALCKLVMRHRDHQVASLNDR [G32M]	-0.899 ± 0.17
RGITCLDHENEKVNMYCVSDDQLICALCKLVERHRDHQVASLNDR [G32E]	-0.248 ± 0.1
RGITCLDHENEKVNMYCVSDDQLICALCKLVGRERDHQVASLNDR [H34E]	-0.368 ± 0.12
RGITCLDHENEKVNMYCVSDDQLICALCKLVGRNRDHQVASLNDR [H34N]	-0.474 ± 0.12
RGITCLDHENEKVNMYCVSDDQLICALCKLVGRLRDHQVASLNDR [H34L]	-1.13 ± 0.19
RGITCLDHENEKVNMYCVSDDQLICALCKLVGRPRDHQVASLNDR [H34P]	-0.66 ± 0.15

Variant	abundance fitness
RGITCLDHENEKVNMYCVSDDQLICALCKLVGRMRDHQVASLNDR [H34M]	-0.677 ± 0.096
RGITCLDHENEKVNMYCVSDDQLICALCKLVGRQRDHQVASLNDR [H34Q]	-0.319 ± 0.087
RGITCLDHENEKVNMYCVSDDQLICALCKLVGRKRDHQVASLNDR [H34K]	-0.402 ± 0.11
RGITCLDHENEKVNMYCVSDDQLICALCKLVGRFRDHQVASLNDR [H34F]	-0.184 ± 0.16
RGITCLDHENEKVNMYCVSDDQLICALCKLVGRRRDHQVASLNDR [H34R]	-0.459 ± 0.064
RGITCLDHENEKVNMYCVSDDQLICALCKLVGRGRDHQVASLNDR [H34G]	-0.383 ± 0.063
RGITCLDHENEKVNMYCVSDDQLICALCKLVGRSRDHQVASLNDR [H34S]	-0.387 ± 0.1
RGITCLDHENEKVNMYCVSDDQLICALCKLVGRTRDHQVASLNDR [H34T]	-0.473 ± 0.1
RGITCLDHENEKVNMYCVSDDQLICALCKLVGRYRDHQVASLNDR [H34Y]	-0.634 ± 0.29
RGITCLDHENEKVNMYCVSDDQLICALCKLVGRDRDHQVASLNDR [H34D]	-0.66 ± 0.13
RGITCLDHENEKVNMYCVSDDQLICALCKLVGRVRDHQVASLNDR [H34V]	-0.558 ± 0.081
RGITCLDHENEKVNMYCVSDDQLICALCKLVGRWRDHQVASLNDR [H34W]	-0.997 ± 0.12
RGITCLDHENEKVNMYCVSDDQLICALCKLVGRARDHQVASLNDR [H34A]	-0.48 ± 0.062
RGITCLDHENEKVNMYCVSDDQLICALCKLTGRHRDHQVASLNDR [V31T]	0.131 ± 0.086
RGITCLDHENEKVNMYCVSDDQLICALCKLYGRHRDHQVASLNDR [V31Y]	-0.117 ± 0.084
RGITCLDHENEKVNMYCVSDDQLICALCKLWGRHRDHQVASLNDR [V31W]	-0.428 ± 0.084
RGITCLDHENEKVNMYCVSDDQLICALCKLPGRHRDHQVASLNDR [V31P]	0.014 ± 0.057
RGITCLDHENEKVNMYCVSDDQLICALCKLSGRHRDHQVASLNDR [V31S]	0.06 ± 0.05
RGITCLDHENEKVNMYCVSDDQLICALCKLQGRHRDHQVASLNDR [V31Q]	0.152 ± 0.062

Variant	abundance fitness
RGITCLDHENEKVNMYCVSDDQLICALCKLVGKHRDHQVASLNDR [R33K]	0.084 ± 0.061
RGITCLDHENEKVNMYCVSDDQLICALCKLVGNHRDHQVASLNDR [R33N]	-0.127 ± 0.094
RGITCLDHENEKVNMYCVSDDQLICALCKLVGIHRDHQVASLNDR [R33I]	-0.106 ± 0.11
RGITCLDHENEKVNMYCVSDDQLICALCKLVGYHRDHQVASLNDR [R33Y]	-0.088 ± 0.24
RGITCLDHENEKVNMYCVSDDQLICALCKLVGVHRDHQVASLNDR [R33V]	-0.073 ± 0.059
RGITCLDHENEKVNMYCVSDDQLICALCKLVGCHRDHQVASLNDR [R33C]	-0.28 ± 0.078
RGITCLDHENEKVNMYCVSDDQLICALCKLVGTHRDHQVASLNDR [R33T]	-0.024 ± 0.068
RGITCLDHENEKVNMYCVSDDQLICALCKLVGPHRDHQVASLNDR [R33P]	0.038 ± 0.12
RGITCLDHENEKVNMYCVSDDQLICALCKLVGFHRDHQVASLNDR [R33F]	-0.764 ± 0.36
RGITCLDHENEKVNMYCVSDDQLICALCKLVGLHRDHQVASLNDR [R33L]	-0.026 ± 0.064
RGITCLDHENEKVNMYCVSDDQLICALCKLVGWHRDHQVASLNDR [R33W]	-0.39 ± 0.076
RGITCLDHENEKVNMYCVSDDQLICALCKLVGEHRDHQVASLNDR [R33E]	-0.022 ± 0.093
RGITCLDHENEKVNMYCVSDDQLICALCKLVGSHRDHQVASLNDR [R33S]	-0.112 ± 0.081
RGITCLDHENEKVNMYCVSDDQLICALCKLVGQHRDHQVASLNDR [R33Q]	-0.006 ± 0.08
RGITCLDHENEKVNMYCVSDDQLICALCKLVGMHRDHQVASLNDR [R33M]	-0.046 ± 0.24
RGITCLDHENEKVNMYCVSDDQLICALCKLVGRHADHQVASLNDR [R35A]	0.064 ± 0.053
RGITCLDHENEKVNMYCVSDDQLICALCKLVGRHCDHQVASLNDR [R35C]	-0.126 ± 0.071
RGITCLDHENEKVNMYCVSDDQLICALCKLVGRHDDHQVASLNDR [R35D]	-0.242 ± 0.1
RGITCLDHENEKVNMYCVSDDQLICALCKLVGRHEDHQVASLNDR [R35E]	0.09 ± 0.092
